Target: T1, recombinant PD-L1 (UniProt Q9NZQ7 19-238, limits assumed)
T1 construct: also called Programmed Death-Ligand 1
Test: SPR, Biacore T200, multi-cycle kinetics, hTT-01 captured on Protein A chip, PD-L1 as analyte, 25 C
Procedure: The chip contains MabSelect SuRe ligand on the surface, allowing orientation-specific binding of the Fc region of an antibody.
The assay was performed by using the Kinetic/Affinity wizard. The Flow path was 2-1, as the ligand was injected and captured in Flow cell 2 and Flow cell 1 acted as a reference. A series of concentrations of PD-L1 were injected over the reference and the ligand surface consecutively as the association phase with short dissociation phases in between by injection running buffer. Then regeneration solution was injected as the regeneration phase. All the procedures were conducted at 25° C.

T1 sequence (Q9NZQ7 19-238 limits assumed): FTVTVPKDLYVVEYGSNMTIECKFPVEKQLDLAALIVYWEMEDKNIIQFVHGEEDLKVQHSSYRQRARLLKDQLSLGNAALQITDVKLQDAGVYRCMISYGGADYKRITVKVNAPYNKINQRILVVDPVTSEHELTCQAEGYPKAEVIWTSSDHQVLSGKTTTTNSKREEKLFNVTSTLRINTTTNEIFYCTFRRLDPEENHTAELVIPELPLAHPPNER

B1: humanized anti-PD-L1 monoclonal antibody hTT-01 (antibody, V domains shown)
VH: EVQLVESGGGLVKPGGSLRLSCAASGFSLSNYVMSWVRQAPGKGLEWVATISSGGRYIYYTDSVKGRFTISRDNAKNSLYLQMNSLRAEDTAVYYCARDGSTLYYFDYWGQGTTVTVSS
VL: QTVLTQSPATLSLSPGERATLSCSASSSVDYMYWYQQKPGQAPRLLIYDTSNLATGIPARFSGSGSGTDFTLTISSLEPEDFATYYCQQWSSSPPITFGQGTKVEIK
notes: It was captured through its Fc on a Protein A chip, and an anti-human IgG secondary antibody was used in FACS; also called TT-01 humanized monoclonal antibody
Kd: 2.56 nM | half-life (t1/2) of the interaction: 1.31 h | koff: 0.000147 s⁻¹ | kon: 57700 M⁻¹ s⁻¹

— patent US20250288612A1 (TOPMUNNITY THERAPEUTICS TAIWAN, published 2025)
